In patent US20060183688A1 (LES LABORATORIES SERVIER, published 2006):
No end group written: not given here. fluorescein = fluorescein label at the N-terminal end

Experiments:
[1] = molecular target: T1, fusion protein glutathione-S-transferase-Bcl-W (UniProt P08515 1-218 = GST; Q92843 1-171); assay: fluorescence polarisation, 15 nM fluorescein-peptide, GST-Bcl-W titrated 1 nM to 5 uM
T1 construct: also called GST-Bcl-W
Description: (§1) A 15 nM solution of the peptide obtained in Example 1 labelled with fluorescein at the N-terminal end is mixed with a solution containing the fusion protein GST-Bcl-XL or GST-Bcl-W at a concentration varying from 1 nM to 5 μM in a buffer containing Na₂HPO₄ 20 mM pH 7.4, EDTA 1 mM, NaCl 50 mM, pluronic acid F-68 0.05%. The fluorescence polarisation is then measured by the En Vision apparatus (Packard Perkin-Elmer).

[2] = molecular target: T2, fusion protein glutathione-S-transferase-Bcl-XL (UniProt P08515 1-218 = GST; Q07817 1-209); assay: fluorescence polarisation, 15 nM fluorescein-peptide, GST-Bcl-XL titrated 1 nM to 5 uM
T2 construct: also called GST-Bcl-XL
T2 sequence (P08515 1-218, tags or fused parts left off): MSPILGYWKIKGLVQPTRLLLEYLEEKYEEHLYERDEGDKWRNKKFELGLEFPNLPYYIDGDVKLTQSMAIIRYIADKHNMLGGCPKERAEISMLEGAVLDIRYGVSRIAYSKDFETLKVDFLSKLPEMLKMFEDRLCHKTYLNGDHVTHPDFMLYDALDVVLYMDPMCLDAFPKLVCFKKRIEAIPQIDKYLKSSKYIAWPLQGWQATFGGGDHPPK
Description: as §1

T1 sequence (P08515 1-218, tags or fused parts left off): as above

B1: peptide obtained in Example 1 labelled with fluorescein at the N-terminal end (peptide)
peptide: fluorescein-DTRRSMVFARHLREVGDEFRSR
notes: Used at 15 nM in fluorescence polarisation; also called ID; NO.1
- Kd [1]: 411 nM
- Kd [2]: 215 nM
